2 molecules from paper PMC2724296 (Nucleic Acids Research, 2009) can be followed below.

A word on the Kd: it is the constant that tells how readily two partners part at equilibrium. Read a low Kd as a tighter complex.

Data set [1] addresses T1, ST1710 (Sulfurisphaera tokodaii, UniProt Q96ZY1).
T1 sequence (Q96ZY1 1-146): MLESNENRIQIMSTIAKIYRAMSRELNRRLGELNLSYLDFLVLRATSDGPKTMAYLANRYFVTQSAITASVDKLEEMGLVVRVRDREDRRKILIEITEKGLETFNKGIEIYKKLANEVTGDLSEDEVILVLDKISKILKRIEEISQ
Put plainly: differential scanning calorimetry. It counts as binding.

Data set [2] has as its target T2, ST1710 R90A (Sulfolobus tokodaii strain 7, UniProt Q96ZY1 1-146, R90A).
T2 sequence: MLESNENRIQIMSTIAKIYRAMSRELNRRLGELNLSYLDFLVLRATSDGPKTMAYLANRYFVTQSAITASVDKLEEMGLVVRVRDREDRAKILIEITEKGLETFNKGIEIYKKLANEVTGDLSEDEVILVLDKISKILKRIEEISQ
Put plainly: EMSA. (Mobility shift assays separate free from complexed probe on a gel.)

Data set [3] concerns the target T3, ST1710 K91A (Sulfolobus tokodaii strain 7, UniProt Q96ZY1 1-146, K91A).
T3 sequence: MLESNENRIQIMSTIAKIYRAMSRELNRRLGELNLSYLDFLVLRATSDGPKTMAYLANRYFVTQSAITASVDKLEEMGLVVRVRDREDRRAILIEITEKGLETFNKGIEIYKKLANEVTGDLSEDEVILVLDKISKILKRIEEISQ
Put plainly: EMSA.

Data set [4] has as its target T4, ST1710 R89A (Sulfolobus tokodaii strain 7, UniProt Q96ZY1 1-146, R89A).
T4 sequence: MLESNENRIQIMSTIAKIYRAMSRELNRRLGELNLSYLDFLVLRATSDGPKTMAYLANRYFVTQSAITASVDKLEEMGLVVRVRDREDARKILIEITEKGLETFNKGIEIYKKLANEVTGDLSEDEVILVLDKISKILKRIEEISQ
Put plainly: EMSA.

For data set [5], the target named is T5, ST1710 (Sulfolobus tokodaii strain 7, UniProt Q96ZY1 1-146).
T5 sequence: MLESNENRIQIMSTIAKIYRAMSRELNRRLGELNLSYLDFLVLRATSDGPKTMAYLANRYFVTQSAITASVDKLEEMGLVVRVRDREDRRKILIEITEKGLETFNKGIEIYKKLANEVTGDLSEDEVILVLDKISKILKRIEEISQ
Put plainly: crystal structure.

`O=C(O)c1ccccc1O` [sodium salicylate] gave a Kd in data set [1] of 20 ± 4.9 mM.

B1: 30-mer putative st1710 promoter duplex (dsDNA)
DNA 1: AATAATGTCATTGTTAACAATAGCAAAAAT
DNA 2: ATTTTTGCTATTGTTAACAATGACATTATT
For the molecule B1, the binding result is “no binding” in data set [2], “no binding” in data set [3], “no binding” in data set [4] and “binds” in data set [5].
